Experiments:
[1] = system: internally quenched peptide probe with CM 7041 (PWGL, SEQ ID NO: 100)
[2] = system: internally quenched peptide probe with CM 7047 (PYGL, SEQ ID NO: 103)
[3] = system: internally quenched peptide probe with CM 7049 (PFGL, SEQ ID NO: 104)
[4] = system: internally quenched peptide probe with CM 7050 (PRGL, SEQ ID NO: 105)
[5] = system: internally quenched peptide probe with CM 7051 (PMGL, SEQ ID NO: 106)
[6] = system: internally quenched peptide probe with CM 7052 (PLGL, SEQ ID NO: 107)
[7] = system: internally quenched peptide probe with CM 7053 (PQGL, SEQ ID NO: 9)
[8] = system: internally quenched peptide probe with CM 7054 (PKGL, SEQ ID NO: 108)
[9] = system: internally quenched peptide probe with CM 7055 (PHGL, SEQ ID NO: 10)
[10] = system: internally quenched peptide probe with CM 7056 (PEGL, SEQ ID NO: 11)
[11] = system: internally quenched peptide probe with CM APMGLKH (SEQ ID NO: 7)
[12] = system: internally quenched peptide probe with CM PMGLK (SEQ ID NO: 64)
[13] = system: internally quenched peptide probe with CM PMGLKS (SEQ ID NO: 5)
[14] = system: internally quenched peptide probe with CM PWGLRS (SEQ ID NO: 181)
[15] = system: internally quenched peptide probe with CM RSPWGL (SEQ ID NO: 182)

human recombinant MMP9 (R&D Systems, catalog No: 911-MP), sequence (chain, as listed by the source): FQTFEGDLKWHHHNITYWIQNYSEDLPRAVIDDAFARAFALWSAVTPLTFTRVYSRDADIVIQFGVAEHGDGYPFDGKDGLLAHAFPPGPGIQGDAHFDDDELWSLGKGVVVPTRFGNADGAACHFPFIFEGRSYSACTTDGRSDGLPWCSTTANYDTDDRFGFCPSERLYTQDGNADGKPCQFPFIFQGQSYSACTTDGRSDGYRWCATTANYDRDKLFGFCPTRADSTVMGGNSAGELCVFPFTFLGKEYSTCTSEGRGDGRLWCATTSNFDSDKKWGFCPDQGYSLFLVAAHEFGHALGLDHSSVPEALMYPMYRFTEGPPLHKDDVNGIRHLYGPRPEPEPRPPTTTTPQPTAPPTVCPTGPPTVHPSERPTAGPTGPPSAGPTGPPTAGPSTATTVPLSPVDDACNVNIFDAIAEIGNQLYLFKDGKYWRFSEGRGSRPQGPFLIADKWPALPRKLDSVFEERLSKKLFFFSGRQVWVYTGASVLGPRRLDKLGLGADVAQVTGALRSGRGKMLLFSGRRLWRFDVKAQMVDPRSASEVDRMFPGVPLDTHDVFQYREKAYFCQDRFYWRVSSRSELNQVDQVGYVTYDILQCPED

human recombinant MMP9 (R&D Systems, catalog No: 911-MP)
stated: cleaved (kcat/Km, M-1s-1, bar on a log axis) [1]: PWGL, MMP9 bar ends just above the 1x10^4 tick | kcat/KM (M^-1 s^-1) [2]: greater than 5×10^2 M^-1 s^-1 | stated: cleaved (kcat/Km, M-1s-1, bar on a log axis) [2]: PYGL, MMP9 bar ends at about the 1x10^4 tick | kcat/KM (M^-1 s^-1) [3]: greater than 5×10^2 M^-1 s^-1 | stated: cleaved (kcat/Km, M-1s-1, bar on a log axis) [3]: PFGL, MMP9 bar ends at about the 1x10^4 tick | stated: cleaved (kcat/Km, M-1s-1, bar on a log axis) [4]: PRGL, MMP9 bar ends between 1x10^4 and 1x10^5 | stated: cleaved (kcat/Km, M-1s-1, bar on a log axis) [5]: PMGL, MMP9 bar ends between 1x10^3 and 1x10^4, close under 1x10^4 | stated: cleaved (kcat/Km, M-1s-1, bar on a log axis) [6]: PLGL, MMP9 bar ends between 1x10^4 and 1x10^5 | stated: cleaved (kcat/Km, M-1s-1, bar on a log axis) [7]: PQGL, MMP9 bar ends between 1x10^3 and 1x10^4 | stated: cleaved (kcat/Km, M-1s-1, bar on a log axis) [8]: PKGL, MMP9 bar ends just above the 1x10^4 tick | stated: cleaved (kcat/Km, M-1s-1, bar on a log axis) [9]: PHGL, MMP9 bar ends between 1x10^3 and 1x10^4 | kcat/KM (M^-1 s^-1) [10]: greater than 5×10^2 M^-1 s^-1 | stated: cleaved (kcat/Km, M-1s-1, bar on a log axis) [10]: PEGL, MMP9 bar ends between 1x10^2 and 1x10^3, just under the 1x10^3 tick | Probe Cleavage (kcat/KM) [11]: 2.8e+06 M⁻¹ s⁻¹ | Probe Cleavage (pM/s) [11]: 115000 pM/s | Probe Cleavage (kcat/KM) [12]: 140000 M⁻¹ s⁻¹ | Probe Cleavage (pM/s) [12]: 6080 pM/s | Probe Cleavage (kcat/KM) [13]: 3.1e+06 M⁻¹ s⁻¹ | Probe Cleavage (pM/s) [13]: 133000 pM/s | Probe Cleavage (kcat/KM) [14]: 150000 M⁻¹ s⁻¹ | Probe Cleavage (pM/s) [14]: 3830 pM/s | Probe Cleavage (kcat/KM) [15]: 870000 M⁻¹ s⁻¹ | Probe Cleavage (pM/s) [15]: 25500 pM/s

Source: patent publication US20260042849
